From patent US20030134779A1, “Method and composition for treatment and/or prevention of antibiotic-resistant microorganism infections” (priority 2002, published 2003)

Tested on: β-lactamase (BlaZ) gene expression in S. aureus strain SHY97-4320
Assay: BlaZ gene expression, real-time quantitative RT-PCR, and total RNA
Type: cell-based, Staphylococcus aureus
Experimental: Fresh MHB containing or not 8 μg/ml of penicillin G and/or 1 mg/ml of bovine LF (2×2 factorial design) was adjusted to an optical density at 540 nm of 0.04 with an overnight culture of S. aureus and then incubated at 37° C. with agitation (150 rpm). After 4 and 22-h of incubation, aliquots were removed to determine bacterial growth by viable count (colony forming unit per ml, cfu/ml), measuring the culture turbidity (OD540nm) with a spectrophotometer Philips PU and to measure β-lactamase activity in bacterial cells. Following culture under the same condition, bacterial cells were collected for RNA extraction.
Total bacterial RNA was prepared using the RNeasy minikit (Qiagen, Mississauga, ON, Canada). Washed bacteria were first treated with 50 μg/ml of lysostaphin (GramCracker, Ambion, Austin, Tex.) for 10 min at 37° C. and RNA was purified according to the manufacturer's protocol. Contaminating DNA was removed from total RNA by using 1 U of Rnase-free Dnase I (Gibco Life Technologies, Grand Island, N.Y.) in a 10 μl reaction mixture containing approximately 50 ng of total RNA per μl and 20mM Tris-HCl (pH 8.4), 2 mM MgCl2 and 50 mM KCl. The reaction mixture was incubated for 15 min at room temperature, and the Dnase I was inactivated by adding 1 μl of 25 mM EDTA to the mixture and incubating for 10 min at 65° C. before assessing quantity and purity. Amount of cellular RNA was then determined by measuring the OD260 nm and OD280 nm.
Real-Time fluorescence-based 5′ nuclease PCR which is a widely accepted method for measuring gene expression levels was used to quantify β-lactamase BlaZ RNA by RT-PCR on ABI Prism™ 7700 (TaqMan® ) sequence detector (PE Applied Biosystem, Foster City, Calif.). The forward primer, reverse.primer, and TaqMan probe for Real-Time RT-PCR amplification were designed with the PrimerExpress software (PE Applied Biosystem) to specifically amplify the. S. aureus BLAZ gene. Briefly, RNA (50 ng) was added to a 50 μl reaction mixture containing 25 μl of 2×RT-PCR One-Step Universal Master Mix, 1.25 μl of 40×MultiScribe and Rnase Inhibitor Mix, 4.5 μl of the forward primer (10 μM, 5′-[…]-3′, SEQ ID NO:3), 4.5 μl of the reverse primer (10 μM, 5′-[…]-3′, SEQ ID NO:4), and 1.25 μl of TaqMan probe (10 μM, 6FAM-[…]-TAMRA, SEQ ID NO:5). Reverse transcription with the recombinant Moloney Murine Leukemia Virus (M-MuLV) Reverse Transcriptase (0.25 U/μl) was conducted at 48° C. for 30 min. After initial activation of AmpliTaq Gold DNA polymerase (1.25 U/μl) at 95° C. for 10 min, 40 PCR cycles of 95° C. for 15 s and 60° C. for 1 min were performed. The cycle threshold value (CT), indicative of the quantity of target gene at which the fluorescence exceeds a pre-set threshold, was determined and compared to the CT of a standard curve containing known amounts of mRNA (1.1×10^2 to 1.1×10^9) from the BLAZ gene of S. aureus obtained by in vitro transcription. Statistical analysis were done on the LOG 10 of number of copies.

B1: LF: bovine lactoferrin, 80-kDa iron-binding glycoprotein found in milk (protein, UniProt P24627 20-708, looked up)
Lactotransferrin: APRKNVRWCTISQPEWFKCRRWQWRMKKLGAPSITCVRRAFALECIRAIAEKKADAVTLDGGMVFEAGRDPYKLRPVAAEIYGTKESPQTHYYAVAVVKKGSNFQLDQLQGRKSCHTGLGRSAGWIIPMGILRPYLSWTESLEPLQGAVAKFFSASCVPCIDRQAYPNLCQLCKGEGENQCACSSREPYFGYSGAFKCLQDGAGDVAFVKETTVFENLPEKADRDQYELLCLNNSRAPVDAFKECHLAQVPSHAVVARSVDGKEDLIWKLLSKAQEKFGKNKSRSFQLFGSPPGQRDLLFKDSALGFLRIPSKVDSALYLGSRYLTTLKNLRETAEEVKARYTRVVWCAVGPEEQKKCQQWSQQSGQNVTCATASTTDDCIVLVLKGEADALNLDGGYIYTAGKCGLVPVLAENRKSSKHSSLDCVLRPTEGYLAVAVVKKANEGLTWNSLKDKKSCHTAVDRTAGWNIPMGLIVNQTGSCAFDEFFSQSCAPGADPKSRLCALCAGDDQGLDKCVPNSKEKYYGYTGAFRCLAEDVGDVAFVKNDTVWENTNGESTADWAKNLNREDFRLLCLDGTRKPVTEAQSCHLAVAPNHAVVSRSDRAAHVKQVLLHQQALFGKNGKNCPDKFCLFKSETKNLLFNDNTECLAKLGGRPTYEEYLGTEYVTAIANLKKCSTSPLLEACAFLTR
BlaZ total: total number of copies of BlaZ gene mRNA/ml of culture (LF 1 mg/ml and/or penicillin G): 5.6 × 10^5 copies/ml of culture | BlaZ: number of copies of BlaZ gene mRNA/50 ng of mRNA (LF 1 mg/ml and/or penicillin G): 1.4 × 10^4 copies/50 ng of mRNA | reduction of the mRNA level in bacteria (LF, P<0.001): 35% | RNA (adjusted for an OD540nm of 1.0, LF 1 mg/ml and/or penicillin G): 1.88 ± 0.68 :g/ml | penicillin G-induced increase of BlaZ mRNA (simultaneous addition of 1 mg/ml of LF): completely prevented
